Changes are numbered by the printed parent chain.
B1: TMPRSS4 Ab1 scFv (VH-VL) (scFv)
scFv: QVQLVQSGAEVKKPGSSVKVSCKASGYTFTDYYMHWVRQAPGQGLEWMGGIIPIFGTANYAQKFQGRVTITADESTSTAYMELSSLRSEDTAVYYCAKEGANGYWGQGTLVTVSSGGGGSGGGGSGGGGSDIQMTQSPSSLSASVGDRVTITCQASQDISNYLNWYQQKPGKAPKLLIYKASSLESGVPSRFSGSGSGTDFTLTISSLQPEDFATYYCQQSSRIPPTFGQGTKVEIK
notes: on monoclonal phage in the screen
B2: TMPRSS4 Ab10 scFv (VH-VL) (scFv)
scFv: QVQLVQSGAEVKKPGASVKVSCKASGYTFTSYYMHWVRQAPGQGLEWMGIINPSGAGTTYGHNFQGRVTMTRDTSTSTVYMELSSLRSEDTAVYYCARGPRDTAMVRFDYWGQGTLVTVSSGGGGSGGGGSGGGGSEIVMTQSPATLSVSPGERATLSCRASQSVSSYLAWYQQKPGQAPRLLIYGASTRATGIPARFSGSGSGTEFTLTISSLQSEDFAVYYCQQYGSSPGTFGQGTKLEIK
notes: as for B1
B3: TMPRSS4 Ab11 scFv (VH-VL) (scFv)
scFv: QVQLVQSGAEVKKPGASVKVSCKASGGTFSNYAISWVRQAPGQGLEWVGRINPNSGGTNYAQKFQGRVTMTRDTSTSTVYMELSSLRSEDTAVYYCARGRYSSSSWGQGTLVTVSSGGGGSGGGGSGGGGSDIQMTQSPSSLSASVGDRVTITCRASQSINNYLNWYQQKPGKAPKLLIYAASSLQSGVPSRFSGSGSGTDFTLTISSLQPEDFATYYCQQSYSTKWTFGQGTKVEIK
notes: as for B1
B4: TMPRSS4 Ab12 scFv (VH-VL) (scFv)
scFv: QVQLVQSGAEVKKPGASVKVSCKASGYTFSNYYIHWVRQAPGQGLEWMGWINPNSGDTNYAQKFQGRVTMTRDTSTSTVYMELSSLRSEDTAVYYCARGMTWRTSAATYWGQGTLVTVSSGGGGSGGGGSGGGGSDIQMTQSPSSLSASVGDRVTITCRASQGISRWLAWYQQKPGKAPKLLIYGASNLQTGVPSRFSGSGSGTDFTLTISSLQPEDFATYYCQQSYSTPPTFGPGTKVDIK
notes: as for B1
B5: TMPRSS4 Ab13 scFv (VH-VL) (scFv)
scFv: QVQLVQSGAEVKKPGASVKVSCKASGYTFTNYYMHWVRQAPGQGLEWMGWISAYNGNTNYAQKLQGRVTMTRDTSTSTVYMELSSLRSEDTAVYYCATASGWGHSNSAGYWGQGTLVTVSSGGGGSGGGGSGGGGSEIVMTQSPATLSVSPGERATLSCRASQSVNGNYLAWYQQKPGQAPRLLIYGVSSRASGIPARFSGSGSGTEFTLTISSLQSEDFAVYYCQQYGSSPYTFGQGTKVEIK
notes: as for B1
B6: TMPRSS4 Ab14 scFv (VH-VL) (scFv)
scFv: EVQLLESGGGLVQPGGSLRLSCAASGFTFSNHYMSWVRQAPGKGLEWVSAISGSGGSTYYADSVKGRFTISRDNSKNTLYLQMNSLRAGDTAVYYCARDRYRWGRGYFQHWGQGTLVTVSSGGGGSGGGGSGGGGSDIQMTQSPSSLSASVGDRVTITCRASQRISTYLNWYQQKPGKAPKLLIYSASTLQAGVPSRFSGSGSGTDFTLTISSLQPEDFATYYCQQAYSLPWTFGQGTKLEIK
notes: as for B1
B7: TMPRSS4 Ab15 scFv (VH-VL) (scFv)
scFv: QVQLVQSGAEVKKPGASVKVSCKASGYTFTRYYMHWVRQAPGQGLEWMGWINPNSGVTNFAQKFQGRVTMTRDTSTSTVYMELSSLRSEDTAVYYCARVRIGWLQSPPLYWGQGTLVTVSSGGGGSGGGGSGGGGSDIQMTQSPSSLSASVGDRVTITCRASQSINTWLAWYQQKPGKAPKLLIYAASSLQSGVPSRFSGSGSGTDFTLTISSLQPEDFATYYCQQAISFPLTFGGGTKVEIK
notes: as for B1
B8: TMPRSS4 Ab46 scFv (VH-VL) (scFv)
scFv: B7 scFv with T30S, Y33F, V57G, F60Y, N166S, A227S, I228Y, S229G, L232W, G236Q
notes: as for B1
B9: TMPRSS4 Ab16 scFv (VH-VL) (scFv)
scFv: QVQLVQSGAEVKKPGASVKVSCKASGYTFSRHYMHWVRQAPGQGLEWMGRINPNSGGTNYAQKFQGRVTMTRDTSTSTVYMELSSLRSEDTAVYYCARSIYGDYWFDPWGQGTLVTVSSGGGGSGGGGSGGGGSDIQMTQSPSSLSASVGDRVTITCRASQSINRWLAWYQQKPGKAPKLLIYGASNLQSGVPSRFSGSGSGTDFTLTISSLQPEDFATYYCQQANSFPYTFGQGTKLEIK
notes: as for B1
B10: TMPRSS4 Ab17 scFv (VH-VL) (scFv)
scFv: QVQLVQSGAEVKKPGASVKVSCKASGYTFTSYYIHWVRQAPGQGLEWMGWMSPNSGDTGYAQKFQGRVTMTRDTSTSTVYMELSSLRSEDTAVYYCARLVRGGFDYWGQGTLVTVSSGGGGSGGGGSGGGGSDIQMTQSPSSLSASVGDRVTITCRASQGISSYLNWYQQKPGKAPKLLIYAASRLQSGVPSRFSGSGSGTDFTLTISSLQPEDFATYYCQQSYRSPPTFGQGTKLEIK
notes: as for B1
B11: TMPRSS4 Ab18 scFv (VH-VL) (scFv)
scFv: QVQLVQSGAEVKKPGASVKVSCKASGYTFTSSGINWVRQAPGQGLEWMGWINPNSGGAKYAQRFQGRVTMTRDTSTSTVYMELSSLRSEDTAVYYCARARGYSGSKRDFQHWGQGTLVTVSSGGGGSGGGGSGGGGSDIVMTQSPDSLAVSLGERATINCKSSQSVLYSSNNKNYLAWYQQKPGQPPKLLIYWASTRESGVPDRFSGSGSGTDFTLTISSLQAEDVAVYHCQQYYNTPFTFGPGTKVDIK
notes: as for B1
B12: TMPRSS4 Ab19 scFv (VH-VL) (scFv)
scFv: QVQLVQSGAEVKKPGASVKVSCKASGYTFNRKFMHWVRQAPGQGLEWMGWMNPNNGATNYAQKFQGRVTMTRDTSTSTVYMELSSLRSEDTAVYYCARGRGYYGSGSYYGDYWGQGTLVTVSSGGGGSGGGGSGGGGSDIQMTQSPSSLSASVGDRVTITCRASQSISRYLNWYQQKPGKAPKLLIYGASNLQSGVPSRFSGSGSGTDFTLTISSLQPEDFATYYCQQSYSTPPTFGPGTKVDIK
notes: as for B1
B13: TMPRSS4 Ab2 scFv (VH-VL) (scFv)
scFv: EVQLLESGGGLVQPGGSLRLSCAASGFTFSDYYMSWVRQAPGKGLEWVSYISGSGDAIYYADSVKGRFTISRDNSKNTLYLQMNSLRAEDTAVYYCARDRSDCGGDDRFLCDGYFDLWGRGTLVSLSGGGGSGGGGSGGGGSDIQMTQSPSSLSASVGDRVTITCRASQSTNNYVNWYQQKPGKAPKLLIYAASSLQSGVPSRFSGSGSGTDFTLTISSLQPEDFATYYCQQSYSIPLTFGPGTKVDIK
notes: as for B1
B14: TMPRSS4 Ab20 scFv (VH-VL) (scFv)
scFv: QVQLVQSGAEVKKPGASVKVSCKASGYTFTRYYMHWVRQAPGQGLEWMGWMNPNSGNAGYAQKLQGRVTMTRDTSTSTVYMELSSLRSEDTAVYYCARGYNWFDPWGQGTLVTVSSGGGGSGGGGSGGGGSDIQMTQSPSSLSASVGDRVTITCRASQNIATYLSWYQQKPGKAPKLLIYGASALRSGVPSRFSGSGSGTDFTLTISSLQPEDFATYYCLQHNTYPLTFGGGTKVEIK
notes: as for B1
B15: TMPRSS4 Ab22 scFv (VH-VL) (scFv)
scFv: QVQLVQSGAEVKKPGASVKVSCKASGYTFTSYYMHWVRQAPGQGLEWMGRINPHSGDADFVDKFQGRVTMTRDTSTSTVYMELSSLRSEDTAVYYCARDRRGYGGNSLDYWGQGTLVTVSSGGGGSGGGGSGGGGSDIQMTQSPSSLSASVGDRVTITCRAGQNIKRYLNWYQQKPGKAPKLLIYAASSLQSGVPSRFSGSGSGTDFTLTISSLQPEDFATYYCQQSYSSPLTFGGGTKVEIK
notes: as for B1
B16: TMPRSS4 Ab23 scFv (VH-VL) (scFv)
scFv: QVQLVQSGAEVKKPGASVKVSCKASGYTFTRNYLHWVRQAPGQGLEWMGIINPSGGSTTYAQKFQGRVTMTRDTSTSTVYMELSSLRSEDTAVYYCARGRTWFRSGMDVWGQGTTVTVSSGGGGSGGGGSGGGGSEIVMTQSPATLSVSPGERATLSCRASQSVGNYLAWYQQKPGQAPRLLIYGASTRATGIPARFSGSGSGTEFTLTISSLQSEDFAVYYCQQYHSSPPYTFGQGTKVEIK
notes: as for B1
B17: TMPRSS4 Ab24 scFv (VH-VL) (scFv)
scFv: QVQLVQSGAEVKKSGASVKVSCKASGYTFTSYYMHWVRQAPGQGLEWMGVINPSGGTTSYAQKFQGRVTMTRETSTSTVYMELSSLRSEDTAVYYCARGRGWLRSALGYWGQGTLVTVSSGGGGSGGGGSGGGGSDIQMTQSPSSLSASVGDRVTITCRASQSISSWLAWYQQKPGKAPKLLIYAASTLQSGVPSRFSGSGSGTDFTLTISSLQPEDFATYYCQQSYNTPYTFGQGTKLEIK
notes: as for B1
B18: TMPRSS4 Ab25 scFv (VH-VL) (scFv)
scFv: QVQLVQSGAEVKKPGASVKVSCKASGGRFSTYALSWVRQAPGQGLEWMGWINPNSGGTNYAQKFQGRVTMTRDTSTSTVYMELSSLRSEDTAVYYCAKSLWWSPSHYYYYGMDVWGQGTTVTVSSGGGGSGGGGSGGGGSEIVMTQSPATLSVSPGERATLSCRASQSVSSNYLAWYQQKPGQAPRLLIYGISTRASGIPARFSGSGSGTEFTLTISSLQSEDFAVYYCQQRSNWPPSITFGQGTRLEIK
notes: as for B1
B19: TMPRSS4 Ab26 scFv (VH-VL) (scFv)
scFv: EVQLLESGGGLVQPGGSLRLSCAASGFTFSSYAMHWVRQAPGKGLEWVAVIWYDGSSKYYADSVKGRFTISRDNSKNTLYLQMNSLRAEDTAVYYCARGEVRRGFQHWGQGTLVTVSSGGGGSGGGGSGGGGSDIQMTQSPSSLSASVGDRVTITCRASQNVGSWLAWYQQKPGKAPKLLIYAASSLQSGVPSRFSGSGSGTDFTLTIRSLQPEDFATYYCQQSYSTPITFGQGTRLEIK
notes: as for B1
B20: TMPRSS4 Ab27 scFv (VH-VL) (scFv)
scFv: QVQLVQSGAEVKKPGASVKVSCKASGYTFSRYYMHWVRQAPGQGLEWMGWMNPNSGDTGYAQKFQGRVTMTRDTSTSTVYMELSSLRSEDTAVYYCAKGREWLRSPFDYWGQGTLVTVSSGGGGSGGGGSGGGGSDIQMTQSPSSLSASVGDRVTITCRASQSISTWLAWYQQKPGKAPKLLIYAASSLQSGVPSRFSGSGSGTDFTLTISSLQPEDFATYYCQQLSSYPLTFGQGTKVEIK
notes: as for B1
B21: TMPRSS4 Ab28 scFv (VH-VL) (scFv)
scFv: QVQLVQSGAEVKKPGASVKVSCKASGYTFTGYYMHWVRQAPGQGLEWMGWMNPNSGNTGYAQKFQGRVTMTRDTSTSTVYMELSSLRSEDTAVYYCARLRAKGGGFDYWGQGTLVTVSSGGGGSGGGGSGGGGSDIQMTQSPSSLSASVGDRVTITCRASQGIGNYLAWYQQKPGKAPKLLIYAASSLESGVPSRFSGSGSGTDFTLTISSLQPEDFATYYCQQGYRFPPTFGPGTKVDIK
notes: as for B1

target: T1, Human TMPRSS4 (Transmembrane protease, serine 4), wild type full length (human, UniProt Q9NRS4 1-437); experiment: flow cytometry, monoclonal phage on HEK293T-TMPRSS4 cells;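 also: bound phage detected with a PE-labelled mouse anti-M13 monoclonal antibody, read by flow cytometry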
T1 construct: Type II membrane protein over-expressed on HEK293T cells (also endogenous on H1975 and LUDLU-1 cells); also called TMPRSS4 WT; HEK293T-TMPRSS4
T1 sequence (Q9NRS4 whole entry): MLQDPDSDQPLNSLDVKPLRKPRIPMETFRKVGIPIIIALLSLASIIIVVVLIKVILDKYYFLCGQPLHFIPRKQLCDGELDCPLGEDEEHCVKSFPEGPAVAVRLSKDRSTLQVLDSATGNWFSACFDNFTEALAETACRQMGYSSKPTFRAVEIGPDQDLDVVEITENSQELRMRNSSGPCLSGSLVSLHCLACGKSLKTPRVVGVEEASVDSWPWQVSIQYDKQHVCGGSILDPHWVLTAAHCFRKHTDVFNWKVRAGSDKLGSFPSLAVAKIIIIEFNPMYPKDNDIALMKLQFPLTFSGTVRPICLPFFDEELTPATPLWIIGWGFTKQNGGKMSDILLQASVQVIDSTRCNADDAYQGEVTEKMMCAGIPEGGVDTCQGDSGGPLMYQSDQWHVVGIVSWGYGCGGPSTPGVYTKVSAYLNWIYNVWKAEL

Row | Binder | binding result
1 | B1 | binds
2 | B2 | binds
3 | B3 | binds
4 | B4 | binds
5 | B5 | binds
6 | B6 | binds
7 | B7 | binds
8 | B8 | binds
9 | B9 | binds
10 | B10 | binds
11 | B11 | binds
12 | B12 | binds
13 | B13 | binds
14 | B14 | binds
15 | B15 | binds
16 | B16 | binds
17 | B17 | binds
18 | B18 | binds
19 | B19 | binds
20 | B20 | binds
21 | B21 | binds

— patent publication US20250297255A1 (ARSENAL BIOSCIENCES, published 2025)
